Laboratory results from patent publication US20250388676A1.
Residue numbers refer to the chain shown, from its start. One block for each binder: values may come before it.

Key:
activated cyno T cells = assay: flow cytometry on activated primary cynomolgus T cells, detection with anti-human IgG Fc F(ab')2 [panel B]
activated human T cells = assay: flow cytometry on activated primary human T cells, detection with anti-human IgG Fc F(ab')2 [panel A]
[1] = biological target: human CD27 on reporter cells (human) (UniProt P26842); assay: cell-based or functional assay
[2] = biological target: CD27 (analyte in solution) (UniProt P26842); assay: SPR (Biacore), construct captured on CM5 chip via anti-human Fc or Fab, antigen as analyte, 25 C
[3] = biological target: human LTBR on Jurkat NF-kB reporter cells (human) (UniProt P36941); assay: cell-based or functional assay
[4] = biological target: human HVEM on Jurkat NF-kB reporter cells (human) (UniProt Q92956); assay: cell-based or functional assay
[5] = biological target: HVEM (analyte in solution) (UniProt Q92956); assay: SPR (Biacore), construct captured on CM5 chip via anti-human Fc or Fab, antigen as analyte, 25 C
[6] = biological target: human OX40 on Jurkat NF-kB-Luc2 OX40 reporter cells (human) (UniProt P43489); assay: cell-based or functional assay
[7] = biological target: OX40 (analyte in solution) (UniProt P43489); assay: SPR (Biacore), construct captured on CM5 chip via anti-human Fc or Fab, antigen as analyte, 25 C
[8] = biological target: cynomolgus GITR (cynomolgus monkey); assay: flow cytometry on NFkB-NlucP/HEK293 cells expressing cyno GITR, detection with anti-human IgG Fc F(ab')2 [panel B]

Sequence of HVEM (analyte in solution) (Q92956 39-202 limits assumed): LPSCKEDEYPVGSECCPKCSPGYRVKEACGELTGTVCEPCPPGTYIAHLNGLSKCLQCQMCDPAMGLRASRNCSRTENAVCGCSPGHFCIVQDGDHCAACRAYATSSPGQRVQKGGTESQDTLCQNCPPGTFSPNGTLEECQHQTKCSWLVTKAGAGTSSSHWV
Sequence of human OX40 on Jurkat NF-kB-Luc2 OX40 reporter cells (human) (P43489 29-277): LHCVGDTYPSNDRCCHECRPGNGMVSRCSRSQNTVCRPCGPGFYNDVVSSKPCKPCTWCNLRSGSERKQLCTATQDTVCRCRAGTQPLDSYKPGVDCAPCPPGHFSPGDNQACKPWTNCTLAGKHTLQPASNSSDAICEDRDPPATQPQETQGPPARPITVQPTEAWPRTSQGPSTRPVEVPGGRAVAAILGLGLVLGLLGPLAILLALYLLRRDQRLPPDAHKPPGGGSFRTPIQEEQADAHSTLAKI
Sequence of human CD27 on reporter cells (human) (P26842 20-260): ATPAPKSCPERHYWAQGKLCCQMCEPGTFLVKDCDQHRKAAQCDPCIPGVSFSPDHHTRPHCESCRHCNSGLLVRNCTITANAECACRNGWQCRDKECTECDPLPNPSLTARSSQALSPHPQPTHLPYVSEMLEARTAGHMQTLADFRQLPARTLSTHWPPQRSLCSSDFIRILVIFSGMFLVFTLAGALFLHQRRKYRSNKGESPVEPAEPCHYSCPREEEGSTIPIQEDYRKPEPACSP
Sequence of human HVEM on Jurkat NF-kB reporter cells (human) (Q92956 39-283): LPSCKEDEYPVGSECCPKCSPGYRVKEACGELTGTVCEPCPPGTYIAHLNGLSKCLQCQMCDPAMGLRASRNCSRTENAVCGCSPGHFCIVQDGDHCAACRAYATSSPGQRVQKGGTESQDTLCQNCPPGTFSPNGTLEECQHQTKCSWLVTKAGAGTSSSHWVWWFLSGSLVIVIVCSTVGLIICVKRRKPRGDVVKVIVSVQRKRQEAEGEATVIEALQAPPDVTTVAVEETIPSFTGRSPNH
Sequence of OX40 (analyte in solution) (P43489 29-214 limits assumed): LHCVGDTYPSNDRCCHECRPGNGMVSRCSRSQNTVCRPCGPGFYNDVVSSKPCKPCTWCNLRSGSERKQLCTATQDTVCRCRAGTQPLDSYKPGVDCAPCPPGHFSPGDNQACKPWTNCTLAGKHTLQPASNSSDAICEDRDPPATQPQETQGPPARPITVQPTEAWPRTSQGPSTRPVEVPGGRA
Sequence of human LTBR on Jurkat NF-kB reporter cells (human) (P36941 31-435): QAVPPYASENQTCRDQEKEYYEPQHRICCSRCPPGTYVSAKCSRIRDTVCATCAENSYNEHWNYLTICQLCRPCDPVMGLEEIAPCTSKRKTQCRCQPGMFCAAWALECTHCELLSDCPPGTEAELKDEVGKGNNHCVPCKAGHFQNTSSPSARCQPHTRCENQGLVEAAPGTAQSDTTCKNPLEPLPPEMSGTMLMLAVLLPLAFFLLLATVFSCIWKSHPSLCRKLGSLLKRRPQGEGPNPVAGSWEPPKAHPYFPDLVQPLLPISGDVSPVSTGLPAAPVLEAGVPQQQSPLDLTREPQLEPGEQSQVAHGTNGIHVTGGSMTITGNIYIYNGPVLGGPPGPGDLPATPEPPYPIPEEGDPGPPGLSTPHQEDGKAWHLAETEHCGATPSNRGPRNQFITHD
Sequence of CD27 (analyte in solution) (P26842 20-191 limits assumed): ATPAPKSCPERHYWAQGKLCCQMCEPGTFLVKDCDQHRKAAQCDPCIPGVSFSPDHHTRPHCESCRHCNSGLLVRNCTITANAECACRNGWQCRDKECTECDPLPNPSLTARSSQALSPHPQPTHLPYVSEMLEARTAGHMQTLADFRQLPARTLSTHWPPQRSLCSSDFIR

EC50 (read off the curve) (activated cyno T cells): 0.6 nM
EC50 (read off the curve) (activated human T cells): 0.4 nM
B1: GITRLmut/anti-PD-1 mAb1 (antibody, part only; not given: mutant GITRL, constant regions, linkers, not shown: a dimerising Fc or GST)
heavy, part: QLQLQESGPGLVKPSETLSLTCTVSGGSISTSSYFWGWIRQPPGKGLEWIGSIYRSGSTYYNPSLKSRVTISVDTSKNQFSLKLSSVTAADTAVYYCARGITGDPGDYWGQGTLVTVSS
light, part: EIVLTQSPATLSLSPGERATLSCGASQSVSINFLAWYQQKPGLAPRLLIYEASSRATGIPDRFSGSGSGTDFTLTISRLEPEDFAVYYCQQYGSSPYTFGQGTKLEIK

EC50 (read off the curve) (activated cyno T cells): 0.2 nM
EC50 (read off the curve) (activated human T cells): 0.1 nM
B2: GITRLmut/anti-PD-1 mAb2 (antibody, part only; not given: mutant GITRL, constant regions, linkers, not shown: a dimerising Fc or GST)
heavy, part: B1 heavy, part with T31S
light, part: B1 light, part with S30P, A56H, Q90G

CD27 reporter EC50 [1]: 1.9 nM
Average binding Relative (RU) [2]: 32.7 RU
B3: CD70 monospecific (protein, part only; not given: carrier Fab or Fc and linkers, not shown: another chain or arm of the molecule; a dimerising Fc or GST; large carriers; small tags and cut ends)
chain: GWDVAELQLNHTGPQQDPRLYWQGGPALGRSFLHGPELDKGQLRIHRDGIYMVHIQVTLAICSSTTASRHHPTTLAVGICSPASRSISLLRLSFHQGCTIASQRLTPLARGDTLCTNLTGTLLPSRNTDETFFGVQWVRPGGGGSGGGGSGWDVAELQLNHTGPQQDPRLYWQGGPALGRSFLHGPELDKGQLRIHRDGIYMVHIQVTLAICSSTTASRHHPTTLAVGICSPASRSISLLRLSFHQGCTIASQRLTPLARGDTLCTNLTGTLLPSRNTDETFFGVQWVRPGGGGSGGGGSGWDVAELQLNHTGPQQDPRLYWQGGPALGRSFLHGPELDKGQLRIHRDGIYMVHIQVTLAICSSTTASRHHPTTLAVGICSPASRSISLLRLSFHQGCTIASQRLTPLARGDTLCTNLTGTLLPSRNTDETFFGVQWVRP

Further lines, the binder ahead of its results:

B4: LIGHT monospecific (protein, part only; not given: carrier Fab or Fc and linkers, not shown: another chain or arm of the molecule; a dimerising Fc or GST; large carriers; small tags and cut ends)
chain: LIQERRSHEVNPAAHLTGANSSLTGSGGPLLWETQLGLAFLRGLSYHDGALVVTKAGYYYIYSKVQLGGVGCPLGLASTITHGLYKRTPRYPEELELLVSQQSPCGRATSSSRVWWDSSFLGGVVHLEAGEKVVVRVLDERLVRLRDGTRSYFGAFMVGGGGSGGGGSLIQERRSHEVNPAAHLTGANSSLTGSGGPLLWETQLGLAFLRGLSYHDGALVVTKAGYYYIYSKVQLGGVGCPLGLASTITHGLYKRTPRYPEELELLVSQQSPCGRATSSSRVWWDSSFLGGVVHLEAGEKVVVRVLDERLVRLRDGTRSYFGAFMVGGGGSGGGGSLIQERRSHEVNPAAHLTGANSSLTGSGGPLLWETQLGLAFLRGLSYHDGALVVTKAGYYYIYSKVQLGGVGCPLGLASTITHGLYKRTPRYPEELELLVSQQSPCGRATSSSRVWWDSSFLGGVVHLEAGEKVVVRVLDERLVRLRDGTRSYFGAFMV
LTBR reporter EC50 [3]: 0.0057 nM
HVEM reporter EC50 [4]: 0.05 nM
Average binding Relative (RU) [5]: 1.69 RU

B5: OX40L monospecific (protein, part only; not given: carrier Fab or Fc and linkers, not shown: another chain or arm of the molecule; a dimerising Fc or GST; large carriers; small tags and cut ends)
chain: QVSHRYPRIQSIKVQFTEYKKEKGFILTSQKEDEIMKVQDNSVIINCDGFYLISLKGYFSQEVDISLHYQKDEEPLFQLKKVRSVNSLMVASLTYKDKVYLNVTTDNTSLDDFHVNGGELILIHQNPGEFCVLGGGGSGGGGSQVSHRYPRIQSIKVQFTEYKKEKGFILTSQKEDEIMKVQDNSVIINCDGFYLISLKGYFSQEVDISLHYQKDEEPLFQLKKVRSVNSLMVASLTYKDKVYLNVTTDNTSLDDFHVNGGELILIHQNPGEFCVLGGGGSGGGGSQVSHRYPRIQSIKVQFTEYKKEKGFILTSQKEDEIMKVQDNSVIINCDGFYLISLKGYFSQEVDISLHYQKDEEPLFQLKKVRSVNSLMVASLTYKDKVYLNVTTDNTSLDDFHVNGGELILIHQNPGEFCVL
OX40 reporter EC50 [6]: 0.74 nM
Average binding Relative (RU) [7]: 23.7 RU

B6: GITRL/irrelevant control (antibody, part only; not given: irrelevant anti-TNP binding site, not shown: another chain or arm of the molecule; small tags and cut ends)
chain: QLETAKEPCMAKFGPLPSKWQMASSEPPCVNKVSDWKLEILQNGLYLIYGQVAPNANYNDVAPFEVRLYKNKDMIQTLTNKSKIQNVGGTYELHVGDTIDLIFNSEHQVLKNNTYWGIILLANPQFISGGGGSGGGGSQLETAKEPCMAKFGPLPSKWQMASSEPPCVNKVSDWKLEILQNGLYLIYGQVAPNANYNDVAPFEVRLYKNKDMIQTLTNKSKIQNVGGTYELHVGDTIDLIFNSEHQVLKNNTYWGIILLANPQFISGGGGSGGGGSQLETAKEPCMAKFGPLPSKWQMASSEPPCVNKVSDWKLEILQNGLYLIYGQVAPNANYNDVAPFEVRLYKNKDMIQTLTNKSKIQNVGGTYELHVGDTIDLIFNSEHQVLKNNTYWGIILLANPQFIS
EC50 (read off the curve) [8]: 0.02 nM
